Here are results for four molecules from patent US8158851B2, “Transgenic high tryptophan plants” (Monsanto Technology LLC, priority 2002, dated 2012).

For data set [1], the target named is T1, Rhizobium meliloti anthranilate synthase, monomeric (SEQ ID NO: 7) (Rhizobium meliloti, UniProt P15395).
T1 construct: made in house; host or cells: E. coli BL-21, plasmid pMON66596 (pSE280)
T1 sequence (P15395 1-729): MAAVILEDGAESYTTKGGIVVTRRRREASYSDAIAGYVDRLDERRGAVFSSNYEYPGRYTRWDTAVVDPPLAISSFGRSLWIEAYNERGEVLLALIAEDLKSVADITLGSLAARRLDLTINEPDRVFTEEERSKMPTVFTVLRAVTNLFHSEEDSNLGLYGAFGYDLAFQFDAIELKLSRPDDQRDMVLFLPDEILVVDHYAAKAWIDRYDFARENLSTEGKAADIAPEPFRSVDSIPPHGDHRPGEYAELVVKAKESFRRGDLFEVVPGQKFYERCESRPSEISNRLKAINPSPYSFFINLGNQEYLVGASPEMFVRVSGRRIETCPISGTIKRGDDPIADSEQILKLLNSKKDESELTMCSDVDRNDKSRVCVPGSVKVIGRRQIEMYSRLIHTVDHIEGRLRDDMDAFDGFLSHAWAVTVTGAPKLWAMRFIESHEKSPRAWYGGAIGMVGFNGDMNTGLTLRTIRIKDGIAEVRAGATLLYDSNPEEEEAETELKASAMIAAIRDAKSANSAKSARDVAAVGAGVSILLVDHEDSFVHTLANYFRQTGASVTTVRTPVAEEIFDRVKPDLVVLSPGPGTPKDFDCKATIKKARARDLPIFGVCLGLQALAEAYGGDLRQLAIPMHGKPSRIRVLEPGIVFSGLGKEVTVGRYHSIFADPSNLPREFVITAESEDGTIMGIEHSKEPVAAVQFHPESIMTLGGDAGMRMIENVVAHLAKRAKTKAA
Kind of data set: Activity assay of crude cell extract by HPLC. Type of data set: biochemical. Particulars: BL-21 cells with pMON66596, HPLC, read-out: ICso (trp). From the text: pMON66596 was transformed into BL-21 cells and induced with IPTG to express protein.

Data set [2] has as its system soy seed. Kind of data set: Free amino acid analysis of soy seed (tryptophan content). Format: in vivo, Glycine max. To be noted: R1 soy seeds expressing the mutant protein. The protocol:
Amino Acid Extraction: About 50 mg of crushed soy seed (5 mg of Arabidopsis) material was placed in each centrifuge vial. One milliliter of 5% trichloroacetic acid was added to each sample (100 μl for Arabidopsis). The samples were vortexed, and allowed to sit, with agitation, at room temperature for 15 min. They were then microcentrifuged for 15 min at 14000 rpm. Some of the supernatant was then removed, placed in a HPLC vial and sealed. Samples were kept at 4° C. in the analysis queue.
Amino Acid Analysis: The reagents utilized for amino acid analysis included the OPA reagent (o-phthalaldehyde and 3-mercaptopropionic acid in borate buffer (Hewlett-Packard, PN 5061-3335)) where the borate buffer (0.4 N in water, pH 10.2). The analysis was performed using the Agilent 1100 series HPLC system as described in the Agilent Technical Publication, “Amino Acid Analysis Using Zorbax Eclipse-AAA Columns and the Agilent 1100 HPLC”, Mar. 17, 2000. First, 0.5 μl of the sample was derivatized with 2.5 μl of OPA reagent in 10 μl of borate buffer. Second, the derivative is injected onto a Eclipse XDB-C18 5 μm, 4.6×150 mm column using a flow rate of 1.2 ml/min. Amino acid concentrations were measured using fluorescence: excitation at 340 nm, emission at 450 nm. Elution was with a gradient of HPLC Buffers A and B according to Table A, where HPLC Buffer A was 40 mM Na2HPO4, pH=7.8 and HPLC Buffer B was 9:9:2::Methanol:Acetonitrile:Water.
Amino acid standards were prepared from the dry chemicals, using all amino acids of interest. Proline analysis required an additional derivatization step with 9-fluorenylmethyl-chloroformate (FMOC). Amino acid standards were also sometimes purchased in concentrations ranging from 0 to 100 μg/ml. Samples were reported in μg/g of seed powder.
Mature R1 seed is produced and analyzed for free amino acid content using fluorescence detection as described in Agilent Technologies Technical Bulletin REV14. Five seeds are chosen for single seed analysis from each event. […] The highest levels of tryptophan have a negative impact on germination.

The test system of data set [3] is Agro AS. Kind of data set: Agro AS enzyme assay, HPLC end-point, desalted extracts of individual soybean seeds. Format: biochemical, Agrobacterium tumefaciens. Particulars: R1 soy seeds carrying the mutant allele. As for the experimental part: The specific activity of anthranilate synthase was measured in eleven transformation events carrying the pMON58120 construct. Individual soybean immature seeds were analyzed using an HPLC-based end-point assay based on the method described by C. Paulsen (J. Chromatogr., 547:155-160 (1991)). Briefly, desalted extracts were generated from individual seeds in grinding buffer (100 mM Tris pH7.5, 10% glycerol, 1 mM EDTA, 1 mM DTT) and incubated for 30 min with reaction buffer (100 mM tris pH 7.5, 1 mM chorismate, 20 mM glutamine, and 10 mM MgCl2). Agro AS activity was measured in the presence or absence of 25 mM trp. The reaction was stopped with phosphoric acid and the amount of anthranilate formed was quantified by HPLC using a fluorescence detector set at 340 nm/excitation and 410 nm/emission.

In data set [4] the test system is Agrobacterium tumefaciens AS. Kind of data set: Anthranilate synthase enzyme assay and kinetic analysis of purified enzymes. To be noted: for Km: 25° C. Format: biochemical. The protocol: Agrobacterium tumefaciens AS wild type and mutant enzymes were expressed in E. coli as described in Example 1. The purification of all the Agrobacterium tumefaciens AS enzymes, including wild type and mutants thereof, was performed at 4° C. The cells (approximate wet weight of 1 g) were suspended in 20 ml of purification buffer (50 mM potassium phosphate, pH 7.3, 10 mM MgCl2, 10 mM 2-mercaptoethanol, 10% glycerol) and lysed by ultrasonication (Branson sonifier Cell Disruptor, W185). Supernatant was collected after centrifugation of the homogenate at 20,000×g for 15 min. The supernatant was subjected to ammonium sulfate fractionation (30 to 65% saturation). The precipitate was collected after centrifugation at 20,000×g for 15 min and dissolved in 3 ml of the purification buffer and then loaded as a whole on an Econo-Pac 10DG desalting column, pre-equilibrated with the same buffer. Fractions containing the enzyme were detected by the developed assay and pooled. The pooled enzyme (4.3 mls) was loaded on a 10 ml DEAF Sephacel (Pharmacia Biotech) column (1.5×7.5 cm) equilibrated with the same buffer. The column was washed with 30 ml of the purification buffer and the enzyme was eluted with 30 ml of 50 mM NaCl in the same buffer. Fractions containing high AS activity were pooled and precipitated by 65% ammonium sulfate saturation and isolated and desalted as above. Fractions containing the enzyme were pooled and stored at −80° C.
The standard assay for Agrobacterium tumefaciens AS was performed at 25° C. in an assay buffer containing 100 mM potassium phosphate, pH 7.0, 10 mM MgCl2, 1 mM dithiothreitol, 200 μM chorismate and 10 mM L-glutamine. The reaction was started by adding 30 μl of enzyme to the reaction mixture and mixing. The formation of anthranilate was directly monitored by the absorbance increase at 320 m for 3 minutes. Initial rate of reaction was calculated as unit absorbance increase per second based on the slope of the absorbance change over the reaction time. Km for chorismate (Km^Cho) was determined in the total volume of 1 ml assay buffer containing 100 mM potassium phosphate, pH 7.0, 10 mM MgCl2, 1 mM dithiothreitol with 10 mM L-glutamine and varying the concentration of chorismate between 2.5-100 μM chorismate. The Km for glutamine (Km^Gln) was determined in the total volume of 1 ml assay buffer containing 100 mM potassium phosphate, pH 7.0, 10 mM MgCl2, 1 mM dithiothreitol with 200 μM chorismate and varying the concentration of L-glutamine between 0.1-2 mM L-glutamine. IC50 for tryptophan (IC50^Trp) was determined with in the total volume of 1 ml assay buffer containing 100 mM potassium phosphate, pH 7.0, 10 mM MgCl2, 1 mM dithiothreitol, 10 mM L-glutamine, 200 μM chorismate and varying the concentration of L-tryptophan between 0.1-10 mM L-tryptophan. Kinetic parameters and IC50 of AS were calculated after fitting the data to a non-linear regression program (GraFit).

The test system of data set [5] is Ruta graveolens anthranilate synthase. To be noted: Bohlmann et al. 1996; cited from earlier work.

Like-named read-outs stand apart in the source and are kept apart here.

For the molecule `N[C@@H](Cc1c[nH]c2ccccc12)C(=O)O` [tryptophan, L-tryptophan], the IC50 in data set [1] was roughly 10 µM.

B1: F298W (protein)
chain: MVTIIQDDGAETYETKGGIQVSRKRRPTDYANAIDNYIEKLDSHRGAVFSSNYEYPGRYTRWDTAIVDPPLGISCFGRKMWIEAYNGRGEVLLDFITEKLKATPDLTLGASSTRRLDLTVNEPDRVFTEEERSKIPTVFTALRAIVDLFYSSADSAIGLFGAFGYDLAFQFDAIKLSLARPEDQRDMVLFLPDEILVVDHYSAKAWIDRYDFEKDGMTTDGKSSDITPDPFKTTDTIPPKGDHRPGEYSELVVKAKESFRRGDLFEVVPGQKFMERCESNPSAISRRLKAINPSPYSWFINLGDQEYLVGASPEMFVRVSGRRIETCPISGTIKRGDDPIADSEQILKLLNSKKDESELTMCSDVDRNDKSRVCEPGSVKVIGRRQIEMYSRLIHTVDHIEGRLRDDMDAFDGFLSHAWAVTVTGAPKLWAMRFIEGHEKSPRAWYGGAIGMVGFNGDMNTGLTLRTIRIKDGIAEVRAGATLLNDSNPQEEEAETELKASAMISAIRDAKGTNSAATKRDAAKVGTGVKILLVDHEDSFVHTLANYFRQTGATVSTVRSPVAADVFDRFQPDLVVLSPGPGSPTDFDCKATIKAARARDLPIFGVCLGLQALAEAYGGELRQLAVPMHGKPSRIRVLEPGLVFSGLGKEVTVGRYHSIFADPATLPRDFIITAESEDGTIMGIEHAKEPVAAVQFHPESIMTLGQDAGMRMIENVVVHLTRKAKTKAA
modifications: An A. tumefaciens mutant.
As for B1, the amounts of tryptophan entry in data set [2] is recorded as “very high amounts of tryptophan”. Moreover, the “tryptophan-resistant anthranilate synthase activity” value in data set [3] is “Very high levels”. Also, the Km in data set [4] (pH 7.0, 200 μM chorismate, L-glutamine varied, read-out: Km^Gln) worked out at 140 µM; in data set [4] (pH 7.0, 10 mM L-glutamine, chorismate varied, read-out: Km^Cho), 18 µM. The molecule further displayed an IC50 in data set [4] (inhibition by L-tryptophan, 10 mM L-glutamine, 200 μM chorismate) of 450 µM. Besides, the kcat in data set [4] (purified enzyme from E. coli) came out at 0.44 s⁻¹.

B2: S51F (protein)
chain: MVTIIQDDGAETYETKGGIQVSRKRRPTDYANAIDNYIEKLDSHRGAVFSFNYEYPGRYTRWDTAIVDPPLGISCFGRKMWIEAYNGRGEVLLDFITEKLKATPDLTLGASSTRRLDLTVNEPDRVFTEEERSKIPTVFTALRAIVDLFYSSADSAIGLFGAFGYDLAFQFDAIKLSLARPEDQRDMVLFLPDEILVVDHYSAKAWIDRYDFEKDGMTTDGKSSDITPDPFKTTDTIPPKGDHRPGEYSELVVKAKESFRRGDLFEVVPGQKFMERCESNPSAISRRLKAINPSPYSFFINLGDQEYLVGASPEMFVRVSGRRIETCPISGTIKRGDDPIADSEQILKLLNSKKDESELTMCSDVDRNDKSRVCEPGSVKVIGRRQIEMYSRLIHTVDHIEGRLRDDMDAFDGFLSHAWAVTVTGAPKLWAMRFIEGHEKSPRAWYGGAIGMVGFNGDMNTGLTLRTIRIKDGIAEVRAGATLLNDSNPQEEEAETELKASAMISAIRDAKGTNSAATKRDAAKVGTGVKILLVDHEDSFVHTLANYFRQTGATVSTVRSPVAADVFDRFQPDLVVLSPGPGSPTDFDCKATIKAARARDLPIFGVCLGLQALAEAYGGELRQLAVPMHGKPSRIRVLEPGLVFSGLGKEVTVGRYHSIFADPATLPRDFIITAESEDGTIMGIEHAKEPVAAVQFHPESIMTLGQDAGMRMIENVVVHLTRKAKTKAA
modifications: An A. tumefaciens mutant.
As to B2, in data set [2], the amounts of tryptophan result is “very high amounts of tryptophan”. Moreover, in data set [3], the “tryptophan-resistant anthranilate synthase activity” value is “Very high levels”.

B3: Ruta graveolens anthranilate synthase α-subunit: Ruta graveolens anthranilate synthase α-subunit isoenzyme, Genbank GI 960291 (protein, listed as Ruta graveolens)
chain: MSAAATSMQSLKFSNRLVPPSRRLSPVPNNVTCNNLPKSAAPVRTVKCCASSWNSTINGAAATTNGASAASNGASTTTTTYVSDATRFIDSSKRANLVPLYRCIFADHLTPVLAYRCLVQEDDKETPSFLFESVEPGRISTVGRYSVVGAHPVMEVIAKDNMVTVMDHEKGSLVEEVVDDPMEIPRRISEDWKPQIIDDLPEAFCGGWVGFFSYDTVRYVEKKKLPFSKAPQDDRNLADMHLGLYNDVIVFDHVEKKVYVIHWVRLNQQSSEEKAYAEGLEHLERLVSRVQDENTPRLAPGSIDLHTGHFGPPLKKSNMTCEEYKMAVLAAKEHIQAGDIFQIVLSQRFERRTFADPFEVYRALRVVNPSPYMTYMQARGCVLVASSPEILTRVKKNKIVNRPLAGTARRGRTTEEDEMLETQLLKDAKQCAEHVMLVDLGRNDVGKVSKSGSVKVEKLMNVERYSHVMHISSTVTGELQDNLSCWDALRAALPVGTVSGAPKVKAMELIDELEVNRRGPYSGGFGGISFTGDMDIALALRTIVFQTGTRYDTMYSYKNATKRRQWVAYLQAGAGIVADSDPDDEHRECQNKAAGLARAIDLAESAFVNKSSS
B3: in data set [5], the “sensitivity to tryptophan inhibition” value is recorded as “less sensitive to tryptophan inhibition”.
